The values that follow come from PMC3072108 (Cell, 2011).

The target of the test is ubiquitin (UniProt P0CG48 1-76). Nature of the test: NMR titration.

B1: Ube2S (enzyme, UniProt Q16763 1-222, looked up)
chain: MNSNVENLPPHIIRLVYKEVTTLTADPPDGIKVFPNEEDLTDLQVTIEGPEGTPYAGGLFRMKLLLGKDFPASPPKGYFLTKIFHPNVGANGEICVNVLKRDWTAELGIRHVLLTIKCLLIHPNPESALNEEAGRLLLENYEEYAARARLLTEIHGGAGGPSGRAEAGRALASGTEASSTDPGAPGGPGGAEGPMAKKHAGERDKKLAAKKKTDKKRALRRL
With B1, the Kd (commonly a measure of binding affinity in units of concentration) was found to be 1700 ± 80 µM.

B2: UBC-domain of Ube2S (domain or fragment)
chain: MNSNVENLPPHIIRLVYKEVTTLTADPPDGIKVFPNEEDLTDLQVTIEGPEGTPYAGGLFRMKLLLGKDFPASPPKGYFLTKIFHPNVGANGEICVNVLKRDWTAELGIRHVLLTIKCLLIHPNPESALNEEAGRLLLENYEEYAARARLLTEIHG
For B2, the Kd came to 1110 ± 80 µM.
